Data reported in WO2021226442A2 (dated 2021).
Values belong to the binder of their own block, whether it stands above or below them.

How the values were obtained:
[1] = biological target: T1, human complement component C3 (human, UniProt P01024 23-667; P01024 672-1663); assay: SPR (Biacore)
T1 construct: Purified human C3 (Complement Technologies); also called human C3

[2] = biological target: T1, human complement component C3; assay: SPR (Biacore), antibody captured, C3 injected, 37 C
[3] = biological target: T2, cynomolgus monkey complement component C3 (cynomolgus monkey, UniProt P01024 24-1663 (human entry)); assay: as above
T2 construct: In the hemolysis assays cyno serum was the source of C3; also called cyno C3

[4] = biological target: T1, human complement component C3; assay: SPR (Biacore), antibody captured by anti-Fc on CM5 chip, C3 injected 0.62-40 nM, 37 C
[5] = biological target: T2, cynomolgus monkey complement component …; assay: as above
[6] = biological target: T1, human complement component C3; assay: cell-based or functional assay
[7] = biological target: T1, human complement component C3; assay: SPR (Biacore), compared with Hz38G10

T1 sequence (P01024 23-667, chain 1 of 2): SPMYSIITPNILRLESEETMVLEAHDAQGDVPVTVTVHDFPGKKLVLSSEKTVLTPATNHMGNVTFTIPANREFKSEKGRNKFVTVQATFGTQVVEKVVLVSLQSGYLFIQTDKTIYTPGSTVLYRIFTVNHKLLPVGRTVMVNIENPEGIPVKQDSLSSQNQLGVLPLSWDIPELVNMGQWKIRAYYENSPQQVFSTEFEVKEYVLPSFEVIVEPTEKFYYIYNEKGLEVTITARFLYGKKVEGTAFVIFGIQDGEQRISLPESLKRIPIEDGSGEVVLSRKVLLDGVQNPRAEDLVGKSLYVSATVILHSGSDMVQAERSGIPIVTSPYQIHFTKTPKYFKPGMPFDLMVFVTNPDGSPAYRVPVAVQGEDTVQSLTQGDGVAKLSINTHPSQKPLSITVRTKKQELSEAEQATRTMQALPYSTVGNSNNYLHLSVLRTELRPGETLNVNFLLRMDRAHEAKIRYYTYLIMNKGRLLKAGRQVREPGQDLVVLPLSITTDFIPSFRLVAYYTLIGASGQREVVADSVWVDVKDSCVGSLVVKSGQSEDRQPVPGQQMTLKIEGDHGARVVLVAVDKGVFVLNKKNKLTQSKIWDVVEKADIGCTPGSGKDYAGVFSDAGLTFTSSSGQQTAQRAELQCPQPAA
T1 sequence (P01024 672-1663, chain 2 of 2): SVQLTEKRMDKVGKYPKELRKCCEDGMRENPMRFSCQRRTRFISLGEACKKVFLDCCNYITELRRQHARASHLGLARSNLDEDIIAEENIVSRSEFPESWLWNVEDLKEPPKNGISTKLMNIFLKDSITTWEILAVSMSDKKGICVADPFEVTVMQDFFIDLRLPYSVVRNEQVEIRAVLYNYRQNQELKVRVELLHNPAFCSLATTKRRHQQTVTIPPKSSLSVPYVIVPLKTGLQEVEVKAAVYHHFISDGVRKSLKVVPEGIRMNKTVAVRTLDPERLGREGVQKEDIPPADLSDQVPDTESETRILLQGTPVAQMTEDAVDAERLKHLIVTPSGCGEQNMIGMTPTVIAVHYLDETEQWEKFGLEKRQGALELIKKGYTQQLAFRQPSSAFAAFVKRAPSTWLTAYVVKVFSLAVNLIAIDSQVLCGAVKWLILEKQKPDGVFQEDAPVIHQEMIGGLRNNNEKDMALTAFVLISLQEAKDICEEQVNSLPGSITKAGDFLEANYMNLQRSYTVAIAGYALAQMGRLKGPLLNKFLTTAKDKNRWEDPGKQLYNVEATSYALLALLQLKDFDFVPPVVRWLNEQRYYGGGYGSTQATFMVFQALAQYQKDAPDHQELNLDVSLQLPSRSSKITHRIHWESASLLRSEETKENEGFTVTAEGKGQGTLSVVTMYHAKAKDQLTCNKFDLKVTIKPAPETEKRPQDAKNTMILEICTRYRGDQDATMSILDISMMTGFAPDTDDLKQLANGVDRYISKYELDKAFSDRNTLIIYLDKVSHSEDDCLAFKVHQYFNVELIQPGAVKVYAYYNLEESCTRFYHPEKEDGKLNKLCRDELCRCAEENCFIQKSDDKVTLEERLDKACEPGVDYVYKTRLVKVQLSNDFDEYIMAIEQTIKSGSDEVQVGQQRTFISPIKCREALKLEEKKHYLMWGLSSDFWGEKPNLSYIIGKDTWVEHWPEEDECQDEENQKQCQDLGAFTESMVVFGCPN
T2 sequence (P01024 other isoform, or with tags, fused parts or gaps): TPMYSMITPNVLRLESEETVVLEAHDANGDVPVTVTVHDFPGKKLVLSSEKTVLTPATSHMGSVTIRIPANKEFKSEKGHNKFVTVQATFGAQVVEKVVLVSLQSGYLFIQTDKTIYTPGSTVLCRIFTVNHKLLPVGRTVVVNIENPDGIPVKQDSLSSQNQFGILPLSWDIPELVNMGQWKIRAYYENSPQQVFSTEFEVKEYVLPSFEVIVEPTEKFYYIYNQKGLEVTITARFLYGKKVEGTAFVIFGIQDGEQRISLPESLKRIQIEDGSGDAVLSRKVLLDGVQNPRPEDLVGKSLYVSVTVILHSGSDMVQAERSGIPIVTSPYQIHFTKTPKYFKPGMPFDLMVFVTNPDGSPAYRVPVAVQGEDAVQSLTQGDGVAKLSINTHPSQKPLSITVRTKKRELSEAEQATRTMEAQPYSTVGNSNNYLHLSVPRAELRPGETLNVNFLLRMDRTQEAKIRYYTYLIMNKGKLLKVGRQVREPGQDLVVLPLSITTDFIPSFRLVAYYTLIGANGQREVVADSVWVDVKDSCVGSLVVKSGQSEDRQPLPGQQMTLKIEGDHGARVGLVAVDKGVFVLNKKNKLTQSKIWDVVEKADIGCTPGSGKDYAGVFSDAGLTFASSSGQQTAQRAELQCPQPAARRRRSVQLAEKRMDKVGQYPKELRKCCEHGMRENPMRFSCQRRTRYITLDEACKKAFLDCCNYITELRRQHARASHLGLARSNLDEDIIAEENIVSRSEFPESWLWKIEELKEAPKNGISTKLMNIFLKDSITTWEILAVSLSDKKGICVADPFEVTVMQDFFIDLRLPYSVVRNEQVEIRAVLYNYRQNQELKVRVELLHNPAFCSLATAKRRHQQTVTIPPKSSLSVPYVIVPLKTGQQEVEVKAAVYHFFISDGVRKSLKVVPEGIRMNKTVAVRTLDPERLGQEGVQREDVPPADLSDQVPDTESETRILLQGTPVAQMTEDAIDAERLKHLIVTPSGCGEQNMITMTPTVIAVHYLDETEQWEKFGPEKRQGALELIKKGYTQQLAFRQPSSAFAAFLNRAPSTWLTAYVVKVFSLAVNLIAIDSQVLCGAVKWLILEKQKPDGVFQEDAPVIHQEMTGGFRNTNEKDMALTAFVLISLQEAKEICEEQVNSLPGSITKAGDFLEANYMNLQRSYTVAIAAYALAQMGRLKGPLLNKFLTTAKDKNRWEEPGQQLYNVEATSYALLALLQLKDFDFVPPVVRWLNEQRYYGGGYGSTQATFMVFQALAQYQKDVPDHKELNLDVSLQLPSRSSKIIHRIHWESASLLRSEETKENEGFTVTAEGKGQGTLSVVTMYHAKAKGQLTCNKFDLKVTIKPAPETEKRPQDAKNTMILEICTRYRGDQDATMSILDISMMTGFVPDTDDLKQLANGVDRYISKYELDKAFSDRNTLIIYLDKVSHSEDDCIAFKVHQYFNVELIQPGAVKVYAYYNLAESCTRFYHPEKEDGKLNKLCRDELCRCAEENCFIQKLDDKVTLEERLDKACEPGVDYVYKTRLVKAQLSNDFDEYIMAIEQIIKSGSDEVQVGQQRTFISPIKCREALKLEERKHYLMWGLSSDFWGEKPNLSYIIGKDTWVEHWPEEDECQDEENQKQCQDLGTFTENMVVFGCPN

B1: Hz38G10 dsscFv (VL-linker-VH disulfide-stabilized scFv) (scFv)
scFv: MDIQMTQSPSSLSASVGDRVTITCKASENVDTYVSWYQQKPGKAPKLLIYGASNRYTGVPSRFSGSGSGTDFTFTISSLQPEDIATYHCGQSHSYPLTFGCGTKLEIKGGGGSGGGGSGGGGSQVQLVQSGAEVKKPGASVKVSCKASGYTFTDFYMDWVRQAPGQCLEWMGYIYPHNGGTTYNQQFTGRVTITVDKSASTAYMELSSLRSEDTAVYYCARRGGFDFDYWGQGTLVTVSS
notes: scFv with an engineered disulfide bond between VL and VH; also called Hz38G10 VL-linker-VH dsscFv
- binding result [1]: binds

B2: antibody 38G10 (antibody, V domains shown)
VH: EVQLQQSGPELVKPGDSVKMSCKASGYTFTDFYMDWVKQSHGKSLEWIGYIYPHNGGTTYNQNFTGKATLTVDKSSNTAYMELHSLTSEDSAVYYCARRGGFDFDYWGQGTTLTVSS
VL: NIVMTQSPKSMSLSVGERVTLRCKASENVDTYVSWYQQKPEQSPKLLIYGASNRYTGVPDRFTGSGSATEFTLTISSVQAEDLVGYHCGQSHSYPLTFGAGTKLELK
notes: Mouse hybridoma monoclonal antibody; also called parental 38G10 antibody
- Kd [2]: ~0.1 nM
- Kd [3]: ~0.1 nM
- Kd [4]: 0.19 nM
- Kd [5]: 0.16 nM

B3: antibody Hz38G10 (antibody, human IgG1, kappa, V domains shown)
VH: QVQLVQSGAEVKKPGASVKVSCKASGYTFTDFYMDWVRQAPGQRLEWMGYIYPHNGGTTYNQQFTGRVTITVDKSASTAYMELSSLRSEDTAVYYCARRGGFDFDYWGQGTLVTVSS
VL: DIQMTQSPSSLSASVGDRVTITCKASENVDTYVSWYQQKPGKAPKLLIYGASNRYTGVPSRFSGSGSGTDFTFTISSLQPEDIATYHCGQSHSYPLTFGQGTKLEIKR
notes: also called humanized 38G10; Hz38G10 intact antibody
- alternative pathway hemolysis assay, fold against COMP or COMP-PEG [6]: ~10 fold
- Kd [2]: 0.3 nM
- Kd [3]: 1.8 nM

B4: variant of antibody Hz38G10 with a N55D mutation in the heavy chain CDR2 (antibody, V domains shown)
VH: QVQLVQSGAEVKKPGASVKVSCKASGYTFTDFYMDWVRQAPGQRLEWMGYIYPHDGGTTYNQQFTGRVTITVDKSASTAYMELSSLRSEDTAVYYCARRGGFDFDYWGQGTLVTVSS
VL: DIQMTQSPSSLSASVGDRVTITCKASENVDTYVSWYQQKPGKAPKLLIYGASNRYTGVPSRFSGSGSGTDFTFTISSLQPEDIATYHCGQSHSYPLTFGQGTKLEIK
notes: Mimics a fully deamidated molecule; also called Hz38G10 N55D variant
- binding result [1]: binds

B5: antibody Hz38G10(G56A) (antibody, human IgG1, kappa, V domains shown)
VH: QVQLVQSGAEVKKPGASVKVSCKASGYTFTDFYMDWVRQAPGQRLEWMGYIYPHNAGTTYNQQFTGRVTITVDKSASTAYMELSSLRSEDTAVYYCARRGGFDFDYWGQGTLVTVSS
VL: DIQMTQSPSSLSASVGDRVTITCKASENVDTYVSWYQQKPGKAPKLLIYGASNRYTGVPSRFSGSGSGTDFTFTISSLQPEDIATYHCGQSHSYPLTFGQGTKLEIKR
- binding result [7]: binds

Results, then the binder that gave them:

- binding result [7]: binds
B6: antibody Hz38G10(N55E) (antibody, V domains shown)
VH: QVQLVQSGAEVKKPGASVKVSCKASGYTFTDFYMDWVRQAPGQRLEWMGYIYPHEGGTTYNQQFTGRVTITVDKSASTAYMELSSLRSEDTAVYYCARRGGFDFDYWGQGTLVTVSS
VL: DIQMTQSPSSLSASVGDRVTITCKASENVDTYVSWYQQKPGKAPKLLIYGASNRYTGVPSRFSGSGSGTDFTFTISSLQPEDIATYHCGQSHSYPLTFGQGTKLEIK

- binding result [7]: binds
B7: antibody Hz38G10(G56T) (antibody, V domains shown)
VH: QVQLVQSGAEVKKPGASVKVSCKASGYTFTDFYMDWVRQAPGQRLEWMGYIYPHNTGTTYNQQFTGRVTITVDKSASTAYMELSSLRSEDTAVYYCARRGGFDFDYWGQGTLVTVSS
VL: DIQMTQSPSSLSASVGDRVTITCKASENVDTYVSWYQQKPGKAPKLLIYGASNRYTGVPSRFSGSGSGTDFTFTISSLQPEDIATYHCGQSHSYPLTFGQGTKLEIK

- binding result [7]: binds
B8: antibody Hz38G10(N55Q) (antibody, V domains shown)
VH: QVQLVQSGAEVKKPGASVKVSCKASGYTFTDFYMDWVRQAPGQRLEWMGYIYPHQGGTTYNQQFTGRVTITVDKSASTAYMELSSLRSEDTAVYYCARRGGFDFDYWGQGTLVTVSS
VL: DIQMTQSPSSLSASVGDRVTITCKASENVDTYVSWYQQKPGKAPKLLIYGASNRYTGVPSRFSGSGSGTDFTFTISSLQPEDIATYHCGQSHSYPLTFGQGTKLEIK
